Earlier results as cited in article PMC4755228.

Target: CD38 (Homo sapiens) (UniProt P28907)
Experiment: BIAcore SPR

For daratumumab, the Kd is listed as 4.36 nM.
